Measurements: PMC10140047, “BICD2 phosphorylation regulates dynein function and centrosome separation in G2 and M” (Nature Communications, 2023)

B2: GST-Rab6A (natural protein, human, UniProt P20340 1-208, looked up)
chain: MSTGGDFGNPLRKFKLVFLGEQSVGKTSLITRFMYDSFDNTYQATIGIDFLSKTMYLEDRTVRLQLWDTAGQERFRSLIPSYIRDSTVAVVVYDITNVNSFQQTTKWIDDVRTERGSDVIIMLVGNKTDLADKRQVSIEEGERKAKELNVMFIETSAKAGYNVKQLFRRVAAALPGMESTQDRSREDMIDIKLEKPQEQPVSEGGCSC
notes: Preloaded with either GDP or GTPγS before the pull-down
B3: TwinStrep-BICD2 S102D (natural protein, mouse, UniProt Q921C5 1-820, looked up)
chain: MSAPSEEEEYARLVMEAQPEWLRAEVKRLSHELAETTREKIQAAEYGLAVLEEKHQLKLQFEELEVDYEAIRSEMEQLKEAFGQAHTNHKKVAADGESREEDLIQESASKEQYYVRKVLELQTELKQLRNVLTNTQSENERLTSVAQELKEINQNVEIQRGRLRDDIKEYKFREARLLQDYSELEEENISLQKQVSVLRQNQVEFEGLKHEIKRLEEETEYLNSQLEDAIRLKEISERQLEEALETLKTEREQKNNLRKELSHYMSINDSFYTSHLQVSLDGLKFSDDTVTAEPNNDAEALVNGFEHSGLVKSSLDNKTSTPRKDGLAPPSPSLVSDLLSELHISEIQKLKQQLVQMEREKVGLLATLQDTQKQLEQARGTLSEQHEKVNRLTENLSALRRLQAGKERQTSLDNEKDRDSHEDGDYYEVDINGPEILACKYHVAVAEAGELREQLKALRSTHEAREAQHAEEKGRYEAEGQALTEKISLLEKASHQDRELLAHLEKELKKVSDVAGETQGSLNVAQDELVTFSEELANLYHHVCMCNNETPNRVMLDYYREGQGKAGRTSPEGRGRRSPVLLPKGLLATEVGRADGGTGDNSPSPSSSLPSPLSDPRREPMNIYNLIAIIRDQIKHLQAAVDRTTELSRQRIASQELGPAVDKDKEALMEEILKLKSLLSTKREQITTLRTVLKANKQTAEVALANLKSKYENEKAMVTETMMKLRNELKALKEDAATFSSLRAMFATRCDEYITQLDEMQRQLAAAEDEKKTLNSLLRMAIQQKLALTQRLELLELDHEQTRRGRSKAASKAKPASPSL
notes: BICD2, mouse, with S102D (pLIB-TwinStrep-3C-BICD2 S102D); A 3C site lies between tag and protein; no cleavage is described; also called full-length BICD2 S102D; S102D TwinStrep-BICD2; source: insect cells (baculovirus), purified (StrepTactinXT, Superdex 200); not shown: TwinStrep, N-terminal, kept

What was measured:
[1] = target: B2; experiment: pull-down; GST-Rab6 on GSH agarose beads preloaded with GTPγS, incubated 90 min at RT with purified TwinStrep-BICD2 in Binding Buffer (50 mM Tris pH 7.4, 125 mM NaCl, 5 mM EDTA, 0.1% NP40); blot with anti-BICD2; conditions: both partners purified
[2] = target: B3; experiment: as above; conditions: both partners purified
[3] = target: the molecule itself; experiment: SEC-MALS; purified TwinStrep-BICD2 WT and S102D; predicted MW of ~190 kDa

B1: TwinStrep-BICD2 WT (natural protein, mouse, UniProt Q921C5 1-820, looked up)
chain: MSAPSEEEEYARLVMEAQPEWLRAEVKRLSHELAETTREKIQAAEYGLAVLEEKHQLKLQFEELEVDYEAIRSEMEQLKEAFGQAHTNHKKVAADGESREESLIQESASKEQYYVRKVLELQTELKQLRNVLTNTQSENERLTSVAQELKEINQNVEIQRGRLRDDIKEYKFREARLLQDYSELEEENISLQKQVSVLRQNQVEFEGLKHEIKRLEEETEYLNSQLEDAIRLKEISERQLEEALETLKTEREQKNNLRKELSHYMSINDSFYTSHLQVSLDGLKFSDDTVTAEPNNDAEALVNGFEHSGLVKSSLDNKTSTPRKDGLAPPSPSLVSDLLSELHISEIQKLKQQLVQMEREKVGLLATLQDTQKQLEQARGTLSEQHEKVNRLTENLSALRRLQAGKERQTSLDNEKDRDSHEDGDYYEVDINGPEILACKYHVAVAEAGELREQLKALRSTHEAREAQHAEEKGRYEAEGQALTEKISLLEKASHQDRELLAHLEKELKKVSDVAGETQGSLNVAQDELVTFSEELANLYHHVCMCNNETPNRVMLDYYREGQGKAGRTSPEGRGRRSPVLLPKGLLATEVGRADGGTGDNSPSPSSSLPSPLSDPRREPMNIYNLIAIIRDQIKHLQAAVDRTTELSRQRIASQELGPAVDKDKEALMEEILKLKSLLSTKREQITTLRTVLKANKQTAEVALANLKSKYENEKAMVTETMMKLRNELKALKEDAATFSSLRAMFATRCDEYITQLDEMQRQLAAAEDEKKTLNSLLRMAIQQKLALTQRLELLELDHEQTRRGRSKAASKAKPASPSL
notes: BICD2, mouse cDNA amplified from the pEGFP constructs into pLIB-TwinStrep-3C-BICD2; A 3C site lies between tag and protein; no cleavage is described; also called full-length BICD2 WT; wild type TwinStrep-BICD2; source: insect cells (baculovirus), purified (StrepTactinXT, Superdex 200); not shown: TwinStrep, N-terminal, kept
fold binding against Rab6 preloaded with GDP [1]: ~5 fold

B2
binding result [2]: binds

B3
stoichiometry N [3]: 2 | fold binding against Rab6 preloaded with GDP [1]: ~5 fold
